We go through two molecules from article PMC10729150 (Journal for Immunotherapy of Cancer, 2023).

Test [1] deals with T1, Recombinant human CTLA-4-Fc (human, UniProt P16410). As to the kind of experiment: SPR. On the technique in general: SPR reads the build-up and loss of mass on a sensor chip optically.
Test [2] concerns the target T1, Recombinant human CTLA-4-Fc. The test can be described thus: ELISA. For orientation: An ELISA detects its analyte on a solid surface through an enzyme-linked reagent.

T1 sequence (P16410 36-161): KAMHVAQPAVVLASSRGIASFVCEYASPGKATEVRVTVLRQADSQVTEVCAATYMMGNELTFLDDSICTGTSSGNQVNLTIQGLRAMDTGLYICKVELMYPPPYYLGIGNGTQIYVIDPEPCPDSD

B1: XTX100 (antibody, V domains shown)
VH: QVQLVQSGAEVKKPGSSVKVSCKASGYTFTNYFMNWVRQAPGQGLEWMGRVDPEQGRADYAEKFKKRVTITADKSTSTAYMELSSLRSEDTAVYYCARRAMDNYGFAYWGQGTLVTVSS
VL: EIVLTQSPDFQSVTPKEKVTITCSANSALSYMYWYQQKPDQSPKLWVHGTSNLASGVPSRFSGSGSGTDFTLTINSLEAEDAATYYCHHWSNTQWTFGGGTKVEIK
As to B1, the equilibrium dissociation constant (Kd) in test [1] came to 0.091 nM; in test [2], 0.16 nM.

B2: XTX101+MMP (proteolytically activated XTX101) (antibody, V domains shown)
VH: QVQLVQSGAEVKKPGSSVKVSCKASGYTFTNYFMNWVRQAPGQGLEWMGRVDPEQGRADYAEKFKKRVTITADKSTSTAYMELSSLRSEDTAVYYCARRAMDNYGFAYWGQGTLVTVSS
VL: EIVLTQSPDFQSVTPKEKVTITCSANSALSYMYWYQQKPDQSPKLWVHGTSNLASGVPSRFSGSGSGTDFTLTINSLEAEDAATYYCHHWSNTQWTFGGGTKVEIK
Consider B2, for which the Kd in test [1] was found to be 0.127 nM; in test [2] it was 0.24 nM.

In general, Kd refers to the free concentration of one partner at which half of the binding sites on the other are occupied at equilibrium, for simple one-to-one binding.
